Measured values published in the nanobody polyreactivity screen of Harvey et al. (2022).

Assay: yeast display, Sf9 membrane polyspecificity reagent, FACS + sequencing; frameworks hold sequencing errors
Procedure, shortened: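 Galactose-induced (36–48 hours) yeast carrying a synthetic nanobody display library were exposed to 10% biotinylated, detergent-solubilized Sf9 membrane reagent at 4 °C for 1 hour. FACS followed streptavidin microbead enrichment, using low and high (top ~1%) gates for expression (anti-HA) and reagent binding (streptavidin). Colony PCR, MiSeq 2 × 250 sequencing and CDR-length filtering followed. Labels for polyreactivity reflect the gate of origin.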

Sequence	polyreactivity (PSR sort gate)
QVQLVESGGGLGQAGGSLRLSCAASGRIFFHYAMGWYRPAPGKERELVATITTVGSTYYADSVKGRFTISRDNAKNTVYLQMNSLKPEDTAVYYCAARYISLSGDEYDYWGQGTQVTVSS	low polyreactivity
QVQLGESGGGLVQAGGSLRLTCAASGSIFSIYAMGWYIQAPGKERELVAAIDSGTSTTYADSVKGRFTISRDNAKYTVYLQMYSLKPEDTAVYYCAAALYSDVASVATYGYYWGQGTQVTVSS	low polyreactivity
QVQLVESGGGLVQAGGTLRLSCAASGSTFAANAMGWYRQAPGKERELVAAITSSGGSTYYADSVKGRFTISRDNAKNTVYLQMNSLKPEDTAVYYCNTDIERYVRIYDSWGQGTQVTVSS	low polyreactivity
QVQLVESGGGLVQAGGSLRLSCAASGRTFVDNAMGWYRQAPGKKRELVATISSGDSTTYADSVKGRFTISRDNAKNTVYLQMNSLKPEDTAVYYCAAAYGWSWYRYDYWGQGTQVTVSS	high polyreactivity
QVQLVESGGGLVQAGGSLRLSCAASGRISNRYAMGWYRQAPGKERELVAAIRRSTTSTYADSVKGRFTISRDNEKNTFYLQMNSLKPEYTAVYYCAARGGRRGGYYSWGQGTQVTVSA	high polyreactivity
QVQLVESGGGLVQAGGSLRLSCADSGRTFTGYVMGWYRQAPGKEREFVAVIRYRGGGTYYAYSVKGRFTISRDNAKNTVYLQMNSLKPEDTAVYYCSARWRYSYVGDFDYWGQGTQVTVSS	high polyreactivity
QVQLVESGGGLVQAGGSLRLSCAASGRTFKGYAMGWYRQAPGKERELVAAITGSVGSTYYADSVKGRFTISRDNAKNTVYLQMNSLKPEDTAVYYCAKRWKATRARYDYWGQGTQVTVSS	high polyreactivity
QYQLVESGGCLVQAGGTLRLRCAATGFTFKSYAMGWYRHAHGKAWELVAAISNRGGSTYYADSVKGRFTISRDNAKNSVYLQINSLKPEDNAVYYCATQYYVRPFDYWGQGTQVTVSS	high polyreactivity
QVQLVESGGGLVQAGGSLRLSCAASGRIFPVNAMGWYRQAPGKEREFVARISRRGGSTYYADSVKGRFTISRDNAKNTVYLQMNSLKPEDTAVYYCAAVSSRYSYDYWGQGTQVTVSS	high polyreactivity
QVQLVESGGGLVQAGGSLRLSCAASGYTFIVNAMGWYRQAPGKERELVAAITSGGGTYYADSVKGRFTISRDNAKNTVYLQMNCLKPEDTAVYYCAARSGYRYVESDYWGQGTQVTVSS	high polyreactivity
QVQLVESGGGLVQAGGSLRLSCAASGFTFNYYAMGWYRQAPGKERELVAAIDSGGNTYYADSVKGRFTISRDNAKNTVYLQMNRLKPEDTAVYYCAAYRDYQYDYWGQGTQVTVSS	low polyreactivity
QVQLVESGGGLVQAGGSLRLSCAASGRISYGNGMGWYIQAPGKERELVAAISWSTTRTYYADSVKGRFTISRDYAKNTVYLQMNSLKPEDTAVYYCNAAGRPYDFSGGRTMEYWGQGTQVTVSS	high polyreactivity
QVQLVESGGGLVQAGGSLRLSCAASGSILFANAMGWYRQAPGKERELVAAIRGSGSTYYADSVKGRFTISRDNAKNTVYLQMNSLKPEDTAVYYCAKRHLISIPDYGRHEYDYWGQGTQVTVSS	low polyreactivity
QVQLVESGGGLVQAGGSLRLSCAASGITFERYAIGWYRQAPGKERELVAAITSSGGSTYYADSVKGRFTISRDNAKNTVYLQMNSLKPEDTAVYYCAARNAYTPRHDYWGQGTQVTVSS	high polyreactivity
QVRLVESGGGLVQAGGSLRLSCAASGSTFKTYAMGWYRQAPGKERELVAAISAGGGSTYYADSVKGRFTISRDNAKNTVYLQMYSLKPEDTAVYYCAAAYIYAGWDYEYWGQGTQVTVSS	low polyreactivity
QVQLGESGGGLVQAGGSLRLSCAASGRTFGLYAMGWYRQAPGKERELVAAISRGTSTNYADSVKGRFTISRDNAKNTVYLEMYSLKPEDTAVYYCNARRKFVGKWGDYWGQGTQVTVSS	low polyreactivity

Sequence	polyreactivity (PSR sort gate)
QVQLVESGGGLVQAGGSLRLSCAASGSTLGVYVMGWYRQAPGKERELVAAISRNGGSTYYADSVKARFTISRDNAKNTVYLQMNSLKPEDTAVYYCAARTVGRKACFDYWGQGTQVTVSS	high polyreactivity
QVQLVESGGGLVQAAGSLRLSSAPSVSSFRNKAMGWYRQAPGKERELVASISSSGDSTYADSVKGRFTISRDNAKNTVSLQMNSLKPEDTAVYYCARDYLSPYAVDYWGQGTQVTVSS	low polyreactivity
QVQLVESGGGLVQAGGSLRLSCAASGRIFEVYAMGWYRQAPGKERELVAAIRSGGNTYYADSVKGRFTISRDNAKNTVYLQMISLKPEDTAVYYCAARYKPPFGGYTYYYWGQGTQVTVSS	high polyreactivity
QVQLVESGGGLVQAGGSLRLSCAASGRTFWYYAMGWYRQAPGKERELVAGITYGDGSTYYADSVKGRFTISRDNAKNTEYLQMNSLKPEDTAVYYCAVDLRSYWFRYGFDYWGQGTQVTVSS	low polyreactivity
QGQRVESGGGLVQAGGSLLLSCAASGLTFAKYAMGWDRQAPGKERELVSTITWSGATTYYADSVKGRFTISRDYAKNTVYLQMNSLKPEDTAVYYCIADLPVYVDYIIGGYGYWGQGTQVTVSS	low polyreactivity
QVQLVESGGRLVQAGGSLRLSCAASGRTIYSNTMGWYRQAPGKEREFVAAIPSIVGSTYYADSVKGRFTISRDNAKNTVYLQMNSLKPEDTAVYYCAVTDYYSYLLRYDSWGQGTQVTVSS	low polyreactivity
QVQLVESGGGLVQAGGSLRVSCAASGRTIRWNAMGWSRQAPGKEREMVAAITSRGGSTYYADSVKGRFTISRDNAKNTVYLQMNSLKPEDTAVYYCAKQPKPPPVTGYDYWGQGTQVTVSS	high polyreactivity
QVQLVESGGGLVQAGGSLRLSCAASGFIFGQYAMGWSRQAPGKERELVAAISESGGRTYYADSVKGRFTISRDNAKNTVYLQMNSLKPEDTAVYYCAADKSKYRAFDYWGQGTQVTVSS	high polyreactivity
QVQLVESGGGLVQAGGSLRLSCADSGFTFCSYTMGWYRQAPGKERELVAAITGGGNTKYADSVKGRFTISRDNAKNTFYLQMISLKPEDSAVYYCARLSRYKSYYTSRFDYWGQGNQVTVSS	high polyreactivity
QVQLVESGGGLVQAGGSLRLSCAASGRTFGYYGMGWYRQAPGKEREFFAAITRSGGSTYYADSVKGRFTISRDNAKNTVYLQMNSLKPEDTAVYYCAAAHLFTRSRPYDYWGQGTQVTVSS	high polyreactivity
QVQLVESGGGLVQAGGSHRLSCAASGGTFRSNAMGWYRQAPGKERELVAAITSNGGRTYYADSVKGRFTISRDNAKNTVYLQMNSLKPEDTAVYYCAALGGYRRPLYGYDYWGQGTQVTVSS	high polyreactivity
QVQLVESGGGLVQAGGSLRLSCAASGSIFRVYAMGWYRQAPGKERELVAAIRSGGGTNYADSVKGRFTISRDNAKITVYLQMNSLKPEDTAVYYCAREAATDISPGYDYWGQGTQVTVSS	low polyreactivity
QVQLVESGGGLVHAGGSLRLSCAASGSTFLSYAMGWYRQAPGKEREFVAAISWSDVNTYYADSVKGRFTISRDNAKNTVYLQMISLKPEDTAVYYCAAYYPSHDYSGFWSDTYEYWGQGTQVTVSS	low polyreactivity
QVQHVESGGGLVQAGGSLSLSCADSGFIFRYYAMGWYRQAPGKERELDAAISWSGGSTYYADSVKGRFTISRDNSKNTVYLQMNSLKPEDTAVYYCAADRYAILFYAEDYWGQGSQVTVSS	low polyreactivity
QVQLVESGGGLVQAGGSLRLSCAASGRIITAYYAMGWYRQAPGKERELVASISSSGTSTYADSVKGRFTISRDNAKNTVYLQMNSLKPEDTAVYYCATRKLRTRRYDYGYWGQGTQVTVSS	low polyreactivity
QVQLVESGGGIVQAGGSLRLSCAASGSIFSTNAMGWYRQAPWKERELVAAIDITNYADSVKGRFTISRDNAKNTVYLQMNSLKPEDTAVYYCNADTYSVVREGDYWGQGTQVTVSS	low polyreactivity
